Target: MBP-p62 WT (Homo sapiens, UniProt Q13501 1-440)
Experiment: EMSA; 2.5 mM Mg2+; bacterial tRNA and BSA; EMSA: 20 mM HEPES pH 7.9, 100 mM KCl, 2.5 mM MgCl2, 5 mM DTT, 0.2 mM EDTA, 20% glycerol, 1 mg/mL BSA, 150 nM tRNA, room temperature; NMR: 20 mM MES pH 6.5, 100
Conditions: protein: recombinant; tags: MBP; label: 32P (internal alpha-UTP for EMSA; end-labelled for footprinting); base-paired terminal stem, central flexible loop

B1: vault RNA1-1 WT (structured_RNA)
RNA: GGCUGGCUUUAGCUCAGCGGUUACUUCGACAGUUCUUUAAUUGAAACAAGCAACCUGUCUGGGUUGUUCGAGACCCGCGGGCGCUCUCCAGUCCUUU
B1: binds.

— publication PMC9014876, “Vault RNA1–1 riboregulates the autophagic function of p62 by binding to lysine 7 and arginine 21, both of which are critical for p62 oligomerization”
